In patent publication US20110166072A1:

Legend:
[1] = biological target: platelet glycoprotein αIIbβ3 (on human platelets) (human) (UniProt P08514); experiment: cell-based or functional assay
[2] = biological target: integrin αvβ3 (on rat osteoclast precursors) (rat); experiment: cell-based or functional assay
[3] = biological target: integrin αIIbβ3 (on CHO-αIIbβ3 cells) (UniProt P08514); experiment: cell adhesion inhibition: CHO-αIIbβ3 cells on coated fibrinogen

Row | Substance | Platelet aggregation IC50 [1] | Osteoclastogenesis IC50 [2] | IC50 [3]
1 | AKGDWN (from UniProt P30403 408-475) (ligand) | 138 nM | 78.4 µM | 
2 | AKGDWN (from UniProt P30403 408-475) (ligand; other documents disagree on this pair) |  |  | 69 nM
3 | HSA-RD (human serum albumin-RD fusion protein) (from UniProt P30403 408-475) | 438 nM | 0.00668 µM | 
4 | HSA-RD (human serum albumin-RD fusion protein) (from UniProt P30403 408-475) (other; other documents disagree on this pair) |  |  | 2750 nM
5 | PRGEMP (from UniProt P30403 408-475) (ligand) | 4910 nM | 68.2 µM | 
6 | PRPDDL (from UniProt P30403 408-475) (ligand) | 3530 nM |  | 
7 | PRPDDL (from UniProt P30403 408-475) (ligand; other documents disagree on this pair) |  |  | 13600 nM
